Laboratory results taken from paper PMC3580588, “Fully recombinant IgG2a Fc multimers (stradomers) effectively treat collagen-induced arthritis and prevent idiopathic thrombocytopenic purpura in mice” (Arthritis Research & Therapy, 2012).
Where two headings read alike, the source gives them in different places.

T1: recombinant mouse FcγRI (mouse, UniProt P26151 25-297)
T1 construct: mouse Fc gamma receptor I, recombinant; source: bought: R&D Systems
T1 sequence (looked up): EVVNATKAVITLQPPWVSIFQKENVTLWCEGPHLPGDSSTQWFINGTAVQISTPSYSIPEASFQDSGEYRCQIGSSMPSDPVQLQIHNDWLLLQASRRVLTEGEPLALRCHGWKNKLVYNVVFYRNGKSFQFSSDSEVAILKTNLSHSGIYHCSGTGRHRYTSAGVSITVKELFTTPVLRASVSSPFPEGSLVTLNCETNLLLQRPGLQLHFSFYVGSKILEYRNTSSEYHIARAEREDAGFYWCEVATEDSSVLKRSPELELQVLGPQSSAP

T2: recombinant mouse SIGN-R1 (mouse), Q8CJ91
T2 chain: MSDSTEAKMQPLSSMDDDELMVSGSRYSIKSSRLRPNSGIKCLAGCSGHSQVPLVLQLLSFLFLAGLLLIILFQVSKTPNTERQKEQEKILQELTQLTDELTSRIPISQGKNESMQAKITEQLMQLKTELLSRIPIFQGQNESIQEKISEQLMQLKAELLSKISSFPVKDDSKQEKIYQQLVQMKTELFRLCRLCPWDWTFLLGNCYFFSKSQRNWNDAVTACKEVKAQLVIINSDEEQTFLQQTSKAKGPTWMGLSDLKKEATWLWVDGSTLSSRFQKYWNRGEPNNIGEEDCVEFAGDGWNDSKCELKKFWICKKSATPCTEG

B1: recombinant murine IgG2a Fc (domain or fragment, mouse, UniProt P01863 98-330, looked up)
chain: EPRGPTIKPCPPCKCPAPNLLGGPSVFIFPPKIKDVLMISLSPIVTCVVVDVSEDDPDVQISWFVNNVEVHTAQTQTHREDYNSTLRVVSALPIQHQDWMSGKEFKCKVNNKDLPAPIERTISKPKGSVRAPQVYVLPPPEEEMTKKQVTLTCMVTDFMPEDIYVEWTNNGKTELNYKNTEPVLDSDGSYFMYSKLRVEKKNWVERNSYSCSVVHEGLHNHHTTKSFSRTPGK
notes: murine IgG2a Fc: hinge, CH2 and CH3 domains, no Fab region; Runs as a homodimer (45 kDa) on non-reducing SDS-PAGE, with a weaker band at about 90 kDa; source: recombinant, from a cDNA construct; host and purification are stated for the stradomers only (HEK293, protein A-derived column)

Assays:
recombinant mouse FcγRI = target: T1, recombinant mouse FcγRI; experiment: SPR; Biacore 3000 or T100; receptors immobilised by amine coupling on CM4 (FcγRs) or CM5 (SIGN-R1) chips; samples 1,000 nM to 0.5 nM in HBS-EP at 20 μl/min; 1:1 Langmuir kinetic model; molecular mass of 50 kDa assigned to homodimer isolates and 150 kDa to all other preparations
[1] = target: recombinant mouse FcγRIIb (mouse) (UniProt P08101); experiment: as above
[2] = target: recombinant mouse FcγRIV (mouse); experiment: as above
[3] = target: recombinant mouse FcγRIII (mouse) (UniProt P08508); experiment: as above
[4] = target: recombinant mouse SIGN-R1 (mouse) (UniProt Q8CJ91); experiment: as above
[5] = target: recombinant mouse FcγRI (mouse) (UniProt P26151); experiment: as above
[6] = target: B1; experiment: as above; settings: both partners purified
[7] = target: T2, recombinant mouse SIGN-R1 (mouse), …; experiment: as above
[8] = target: the molecule itself; experiment: SDS-PAGE, nonreduced against reduced; 0.5 to 2 μg of purified protein on 4-12% Bis-Tris gels, Coomassie stain; multimers present under denaturing but not reducing conditions (covalently linked)

Kd [1]	Kd [2]	Kd [3]	Kd [6]	Molecule	other results
3.3 nM	3.03 nM	4.2 nM		2A-2HC: stradomer with hinge of human IgG2 linked to the carboxy terminus of murine IgG2a Fc (unfractionated) (Fc fusion)	Kd (recombinant mouse FcγRI): 9.12 nM
3.4 nM	7.6 nM	4.4 nM		2A-2HN: stradomer with hinge of human IgG2 linked to the amino terminus of murine IgG2a Fc (Fc fusion)	Kd (recombinant mouse FcγRI): 16.3 nM; Kd [4]: 109 nM
455 nM	63.6 nM	151 nM		2A-ILZC: stradomer with the isoleucine zipper linked to the carboxy terminus of murine IgG2a Fc (Fc fusion)	Kd [5]: 63.4 nM
3.8 nM	0.46 nM	2.3 nM		2A-ILZN: stradomer with the isoleucine zipper linked to the amino terminus of murine IgG2a Fc (Fc fusion)	Kd [5]: 6.71 nM
			248 nM	recombinant mouse FcγRIII (receptor, UniProt P08508 31-215, looked up, mouse Fc gamma receptor III, recombinant; His tag and catalogue number are told for the biolayer interferometry only; also called His-tagged mouse FcγRIII; source: bought: R&D Systems) ALPKAVVKLDPPWIQVLKEDMVTLMCEGTHNPGNSSTQWFHNGRSIRSQVQASYTFKATVNDSGEYRCQMEQTRLSDPVDLGVISDWLLLQTPQRVFLEGETITLRCHSWRNKLLNRISFFHNEKSVRYHHYKSNFSIPKANHSHSGDYYCKGSLGSTQHQSKPVTITVQDPATTSSISLVWYHT	
			289 nM	recombinant mouse FcγRIIb (receptor, UniProt P08101 30-210, looked up, mouse Fc gamma receptor IIb, recombinant; His tag and catalogue number are told for the biolayer interferometry only; also called His-tagged mouse FcγRIIb; source: bought: R&D Systems) THDLPKAVVKLEPPWIQVLKEDTVTLTCEGTHNPGNSSTQWFHNGRSIRSQVQASYTFKATVNDSGEYRCQMEQTRLSDPVDLGVISDWLLLQTPQLVFLEGETITLRCHSWRNKLLNRISFFHNEKSVRYHHYSSNFSIPKANHSHSGDYYCKGSLGRTLHQSKPVTITVQGPKSSRSLP	
			27.8 nM	recombinant mouse FcγRIV (receptor, UniProt A0A0B4J1G0 21-203, looked up, mouse Fc gamma receptor IV, recombinant; source: bought: R&D Systems) GLQKAVVNLDPKWVRVLEEDSVTLRCQGTFSPEDNSIKWFHNESLIPHQDANYVIQSARVKDSGMYRCQTALSTISDPVQLEVHMGWLLLQTTKWLFQEGDPIHLRCHSWQNRPVRKVTYLQNGKGKKYFHENSELLIPKATHNDSGSYFCRGLIGHNNKSSASFRISLGDPGSPSMFPPWHQ	
				2A-ILZN: stradomer with the isoleucine zipper linked to the amino terminus of murine IgG2a Fc (Fc fusion, modifications not checked) EPRGPTIKPCPPCKCPAPNLLGGPSVFIFPPKIKDVLMISLSPIVTCVVVDVSEDDPDVQISWFVNNVEVHTAQTQTHREDYNSTLRVVSALPIQHQDWMSGKEFKCKVNNKDLPAPIERTISKPKGSVRAPQVYVLPPPEEEMTKKQVTLTCMVTDFMPEDIYVEWTNNGKTELNYKNTEPVLDSDGSYFMYSKLRVEKKNWVERNSYSCSVVHEGLHNHHTTKSFSRTPGK	Kd [7]: 134 nM
				2A-ILZC: stradomer with the isoleucine zipper linked to the carboxy terminus of murine IgG2a Fc (Fc fusion, modifications not checked) EPRGPTIKPCPPCKCPAPNLLGGPSVFIFPPKIKDVLMISLSPIVTCVVVDVSEDDPDVQISWFVNNVEVHTAQTQTHREDYNSTLRVVSALPIQHQDWMSGKEFKCKVNNKDLPAPIERTISKPKGSVRAPQVYVLPPPEEEMTKKQVTLTCMVTDFMPEDIYVEWTNNGKTELNYKNTEPVLDSDGSYFMYSKLRVEKKNWVERNSYSCSVVHEGLHNHHTTKSFSRTPGK	Kd [7]: 43.9 nM
				B1	Kd (recombinant mouse FcγRI; both partners purified): 17.4 nM; stoichiometry N [8]: 2
